The results in this text go back to patent US9206246B2, “Heparin/heparan sulfate-dependent inhibitors of activated protein C and uses thereof in treating hemophilic disorders” (Academia Sinica, priority 2012, dated 2015).

Common to all, as to format: biochemical
In test [1] the test system is APC in FIX-deficient plasma. Nature of the test: APTT-based APC resistance assay in FIX-deficient plasma. Particulars: 50-200 nM DrKIn-I, 40 nM APC, 2 μg/ml heparan sulfate. The protocol:
APTT-based clotting times were measured in normal, FVIII-deficient and FIX-deficient plasma containing 2 μg/ml heparan sulfate in the presence or absence of 40 nM APC and the indicated concentrations of DrKIn-I. Results shown are means±S.D. of at least three experiments.
50 μl of normal plasma, FVIII-deficient plasma or FIX-deficient plasma supplemented with 2 μg/ml heparan sulfate (four disaccharide units long) was exposed to APC (40 nM) and varying concentrations of DrKIn-I (50-200 nM). 50 μl of activated partial thromboplastin (APTT) reagent (HYPHEN Biomed) was added and incubated for 1 minute at 37° C. Finally, clotting was initiated by adding 50 μl of 20 mM CaCl2. Coagulation times, which reflect the activities of APC, were recorded on a coagulometer (Hemostasis Analyzer KC-1; Sigma Diagnostics).

The test system of test [2] is plasmin. The experiment in a line: Euglobulin clot lysis assay.
In test [3] the target is T1, plasmin (Homo sapiens, UniProt P00747).
T1 construct: thrombin, plasma kallikrein and plasmin were obtained; purchased Haematologic Technologies
Nature of the test: Selectivity profile and Ki, amidolytic activity of plasmin. The conditions noted are these: for inhibition of plasmin: equimolar, plasmin 20 nM. The method, then:
In each of these experiments, the molar ratio of protease active site to inhibitor was 1:1. The final concentrations of these proteases and their respective substrates were as follows: FXIIa (20 nM)/S-2302 (0.2 mM), FXIa (2.5 nM)/S-2366 (0.2 mM), FXa (10 nM)/S-2222 (1.3 mM), FIXa (200 nM)/Spectrozyme FIXa (1.3 mM), FVIIa (100 nM)/S-2288 (1.3 mM), thrombin (5 nM)/T-1637 (0.2 mM), kallikrein (5 nM)/S-2302 (0.2 mM), plasmin (20 nM)/S-2251 (0.2 mM), tPA (80 nM)/Spectrozyme tPA (0.2 mM), uPA (100 nM)/S-2288 (1.3 mM), APC (10 nM)/Spectrozyme PCa (0.2 mM) and trypsin (5 nM)/S-2222 (0.2 mM). Results shown are means±SD of at least three experiments.
DrKIn-I, with or without heparin, was screened for its inhibitory activity against trypsin and also against serine proteases in the coagulation cascade (FXIIa, FXIa, FXa, FIXa, FVIIa, thrombin and kallikrein) and in the fibrinolytic system (plasmin, tPA and uPA). The amidolytic activities of these proteases were determined in the presence or absence of equimolar concentrations of DrKIn-I using their respective chromogenic substrates.

The target in test [4] is T2, human activated protein C (Homo sapiens, UniProt P04070).
T2 construct: purchased Haematologic Technologies
Nature of the test: Inhibition of APC amidolytic activity (Spectrozyme PCa chromogenic substrate). Particulars: for enhancement of APC inhibition by heparan sulfate chain: 10 μg/ml, APC and DrKIn-I 20 nM each; for Hill slope of dose-response curve / IC50: APC 10 nM. The method, then:
B: Dose-response curves of APC (10 nM) inhibition by DrKIn-I in the absence (◯) and presence (●) of 0.1 U/ml heparin. C: To determine the minimum concentration of heparin required for the potentiation APC inhibition, the activity of APC (20 nM) was measured after the addition of DrKIn-I (20 nM) and varying concentrations of heparin (0-1000 mU/ml). D: To assess the ability of heparan sulfate and the minimum length of heparan sulfate required to potentiate DrKIn-I-mediated APC inhibition, the amidolytic activity of APC was determined in the presence of DrKIn-I (20 nM) and different lengths of heparan sulfate chains (10 μg/ml each). E, Time course of FVa inactivation by APC (1 nM) was assessed in the absence (●) or presence (▪) of 5 nM DrKIn-I, or in the presence of 5 nM DrKIn-I supplemented with 0.1 U/ml heparin (▴), as described in “Materials and methods”. F, The effect of DrKIn-I (0-250 nM) and/or heparin (0.1 U/ml) on APC-mediated FVa inactivation was determined after 10 minutes of incubation at 37° C. with APC (5 nM). Results shown are means±SD of three experiments.
All inhibition assays were performed in 96-wells microtiter plates in 25 mM Tris-HCl (pH 7.4), 150 mM NaCl, 2.5 mM CaCl2 and 5 mg/ml BSA. For comparison between DrKIn-I and DrKIn-II, the amidolytic activity of 10 nM APC, with or without 0.1 U/ml heparin, was assayed in the presence or absence of equal molar concentrations of DrKIn-I or DrKIn-II. Immediately after the addition of APC, Spectrozyme PCa was added and the rates of p-nitroaniline release were monitored at 405 nm for 10 minutes at 37° C. For dose response curves, APC was mixed with different concentrations of DrKIn-I in the presence or absence of heparin. The final concentrations were as follows: APC (10 nM), heparin (0.1 U/ml) and DrKIn-I (0-100 nM in the presence of heparin and 0-12800 nM in the absence of heparin). Dose-response curves were fitted using GraphPad Prism (GraphPad Software). In other inhibition experiments, varying concentrations of heparin ([…]) or different lengths of heparan sulfate chains (10 μg/ml) were added to equimolar concentrations of APC and DrKIn-I (20 nM each). In all the inhibition experiments, Spectrozyme PCa was added to a final concentration of 0.2 mM. Changes in absorbance were measured using SpectraMax M2^e Microplate Reader (Molecular Devices).

[5] abbreviates: in the presence of 0.1 U/ml heparin.

T1 sequence (P00747 581-810 limits assumed): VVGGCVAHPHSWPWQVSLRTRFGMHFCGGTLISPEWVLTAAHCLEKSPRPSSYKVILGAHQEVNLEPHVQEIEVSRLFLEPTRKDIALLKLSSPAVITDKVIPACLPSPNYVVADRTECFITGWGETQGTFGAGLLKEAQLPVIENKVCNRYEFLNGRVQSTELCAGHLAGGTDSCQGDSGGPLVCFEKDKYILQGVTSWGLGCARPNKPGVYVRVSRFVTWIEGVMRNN
T1 sequence (P00747 97-580 limits assumed): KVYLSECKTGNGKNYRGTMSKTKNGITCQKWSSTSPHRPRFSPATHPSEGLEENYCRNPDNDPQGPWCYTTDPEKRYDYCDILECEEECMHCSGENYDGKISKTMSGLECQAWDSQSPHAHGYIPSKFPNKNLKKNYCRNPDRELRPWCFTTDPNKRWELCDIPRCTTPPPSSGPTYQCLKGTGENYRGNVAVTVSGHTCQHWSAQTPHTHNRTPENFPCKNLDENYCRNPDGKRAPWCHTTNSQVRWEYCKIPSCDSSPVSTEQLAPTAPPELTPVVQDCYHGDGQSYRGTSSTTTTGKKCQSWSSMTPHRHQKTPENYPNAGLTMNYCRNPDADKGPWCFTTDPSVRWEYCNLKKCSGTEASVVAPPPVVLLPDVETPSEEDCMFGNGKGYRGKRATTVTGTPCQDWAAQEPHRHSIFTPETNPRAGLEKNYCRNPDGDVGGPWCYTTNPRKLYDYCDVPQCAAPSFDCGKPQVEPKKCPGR
T2 sequence (P04070 212-450 limits assumed): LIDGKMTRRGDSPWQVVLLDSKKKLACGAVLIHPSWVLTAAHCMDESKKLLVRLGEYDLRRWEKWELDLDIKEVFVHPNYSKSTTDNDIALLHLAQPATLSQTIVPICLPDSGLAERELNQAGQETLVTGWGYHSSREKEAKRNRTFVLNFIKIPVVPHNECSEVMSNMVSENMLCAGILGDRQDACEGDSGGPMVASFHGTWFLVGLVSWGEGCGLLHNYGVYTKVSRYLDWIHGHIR
T2 sequence (P04070 43-197 limits assumed): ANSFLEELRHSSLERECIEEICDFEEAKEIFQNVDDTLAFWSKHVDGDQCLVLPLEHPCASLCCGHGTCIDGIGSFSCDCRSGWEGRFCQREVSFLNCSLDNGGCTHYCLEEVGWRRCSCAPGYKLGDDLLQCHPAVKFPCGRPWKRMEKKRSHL

Regarding DrKIn-I (CGGNDNNFETRKKCRQTCGAPRKGRPT), in test [1], the clotting time entry is listed as “dose-dependently decreased the clotting time”. Besides, the “prolongation of euglobulin clot lysis time” value in the test with plasmin [2] (20 nM inhibitor) is recorded as “failed to prolong the clot lysis time”; in the test on plasmin [2] (100 nM inhibitor) it was “approximately an hour”. Also, the inhibition of plasmin with plasmin [3] (in the absence of heparin) is around 20%; with plasmin [3] (in the presence of heparin (0.1 U/ml)), around 70%. Besides, in the test with plasmin [3] (in the presence of heparin, read-out: Ki for plasmin inhibition), the Ki – broadly, the equilibrium dissociation constant of an inhibitor or competing ligand from its target – was determined as 1.56 ± 0.09 nM. Further, the “inhibitory activity against APC in the absence of heparin” value in test [4] (10 nM inhibitor, 10 nM APC, no heparin) was “little inhibitory activity against APC”. The “potentiation of APC inhibition by heparin” value in test [4] (0.01 U/ml heparin, APC 20 nM, DrKIn-I 20 nM) is on record as “more than 70%”. In addition, in test [4] (0.1 U/ml heparin, APC 20 nM, DrKIn-I 20 nM), the APC activity result is on record as “no APC activity was detectable”. Besides, the “decrease of APC activity (inhibition of APC amidolytic activity)” value in test [4] (equimolar inhibitor and APC (10 nM each), 0.1 U/ml heparin, Spectrozyme PCa 0.2 mM) is recorded as 100%. In addition, the “enhancement of APC inhibition by heparan sulfate chain” value is listed as around 25% in test [4] (heparan sulfate of 2 disaccharide units) and around 10% in test [4] (heparan sulfate of one disaccharide unit). Moreover, the “Hill slope of dose-response curve” value in test [4] (in the absence of heparin) was −0.85±0.02; in test [4] (setting [5]), −3.64±0.30. Further, the IC50 (usually the midpoint of a concentration-inhibition curve) in test [4] (in the absence of heparin) was 88.9 ± 1 nM; in test [4] (setting [5]), 3.5 ± 0.2 nM. Also, in test [4] (with vs without heparin), the “reduction of IC50 by heparin” value was 25 fold.
